The assay has as its target T1, short SARS-CoV-2 peptide (10 residues) of the ITC (SARS-CoV-2).
T1 chain: FKEELDKYFK
Briefly: ITC. In general terms: ITC needs no label: the signal is the heat of the interaction.

B1: WS6 (monoclonal antibody, IgG) (antibody, V domains shown)
VH: EVQFQQSGTVLARPGASVKMSCKASGYTFTNYWIHWVKQRPGQGLEYIGGTYPGNGDTTYNQKFKGKAKVTAVTPTSTAYMDLSSLTNEDSAVYYCTRTGSYFDYWGQGTTLTVSS
VL: QIVLTQSPAIMSASPGEKVTISCSATSSVSYIYWYQQRPGSSPKPWIYRTSNLASGVPVRFSGSGSGTSYSLTISNMEAEDAATYYCQQYQSYPPTFGAGTKLELK
Molecule B1 came in with a Kd of 22 nM.

By Kd is commonly meant a measure of binding affinity in units of concentration. Low readings indicate a tighter complex, high ones a looser complex.

The record behind these values is publication PMC9284671 (Structure (London, England : 1993), 2022).
